Reference: the NTF2 design screens of Basanta et al. (2020)

Experiment: protease stability score; higher = more stable; yeast display proteolysis, trypsin and chymotrypsin;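 also: relative to predicted unfolded state with 0 unfolded-like and 1 meaning tenfold more protease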
“SEEEEHLDHALKNIIDLIRTGDENLQRELFDPRVRLVVGDKEFHGWETVVHRLREMRFKDFHVRRERIVGDKVHIDVEVNGNVDGRDDVMRMEIRIDKVNGQWRTKNVILN” gave a protease stability score of 2.05. For “DHHEHDTKILMDLWLHALTTGDWRLLAELADPHVRFEVEFDGRRIEYHGRHSFEEHMKRLVDKIKNLTLTIHDVRVIGDFVHIEGETTWDGRTSSIHIHLKVINGRVKHIKVEER”, the protease stability score was 1.92. “SEEEELAERFYEKFLRLARTGDEDELKRLFDPHVRHYVDGRELIGRELLVKFLIEWRVHDSEIREVRIQGDKLWFNTVIHGNFNGVETKQEMEVRSRKIDGQWFATEVQIK” gave a protease stability score of 0.694. In the case of “SEIDEFSEKAFRLLLETLQTGDWRLTSELVDPNVRVHFEGHEHVGMEEVSKVVRHWRVKRIELKHLEVIGEKMHMILHQDIEVNGQRVRTDMIVTADKIDGVWLLTEVRIK”, the protease stability score is reported as 1.59. Work on “SEDEELAKRIAKLWIELHLTGNEDTIKQLMDPRVLVRIHINGVDIHLHGREHVIRHHRETMKHLGWSKVHLELKDSKFIGEYLHMDVRMNVNGQEHHVELEIIVINGRMKEIRINIE” yielded a protease stability score of 2.02. “NEDERLIKEFWRLLQEALKTGNWEMIAELIDPHVRIDIGDKQIHGREEFIKLVDHIRFDDVKTELKTVHVFDGRVEVRGHLTVHKTFNGQKIDERTDVNLDIEKINGVWYMTYVRIE” gave a protease stability score of 2.06. In the case of “SDQDHLTELAEHLFEYSLETGDEELMDKNFDPNMKLEVGEKHEHGRHVAETFSRRFDVVKSIEMKHVTTINGVAEIDGHIDGNFNGVDIRTDVRLVSLKIDGRWFIHSITFV”, the protease stability score is reported as 0.319. Work on “SEEKEIAERIVRELLYAYHTGDEQLFNHLADPHVRIHIGEFHKVGREHWEELHRWLDNHLRIHRFFFRDVEVQGEKVHIHVRTNTIIGDKRIDTNLLFFILVVNGKIKHMEVREI” yielded a protease stability score of 1.81. Work on “DEHEEDWRHVLKTLEDVMRTGDPHLFSHLADPHVRLRIDGRDHIGMELMWEILHKYKNITIEIEHSRVQGDKIEIRGTLDVDGRRYHVTIFADKINGKWIHREMEVT” yielded a protease stability score of 1.18. For “DEEDRDAEFFMRLWMRLHKTGDEDQLRELLDPDVRVRFENREFHGREELIKFIHRHRREARTDVKIRDFRVQGDKVIVHGELILQFDGVRFNHDLILITRKIDGRWRIEEIEVR”, the protease stability score was 1.84. Sequence “SEDEKNHKIAMRILRRVIETGDERELEELADPDVRIVIGDKFHVGRDVWHEWAHRFDHTHHIEVKDHRHFDGRITLDTEVDVHIDGRRSRMRVIIIARKVDGVWFLHELRIH” has a protease stability score of 1.31. With “SEIEETTRQASEFNLHSFRTGDEKMVHELADPHVRTDFNGKRLHGRESLTKELDKLLKDLGVDHVRIEHVNIYNGRVDIIMRVEVGDKEWKITIIAIKIDGKWKLESIEME” the protease stability score was 0.132. Work on “DEDERFTKFAWELLVKALVTGDEDSLKDLFDPHARIFYNGRINHGRESFVKHLMEIRFKRIEMRRFDFFDGRVRMEGEVEGEVDGKEDHYRIEIVVKKYDGRWELKEFRLV” yielded a protease stability score of 1.68. For “DDSDQANKIMLEVLRRKLDTGDEDSIRKLADPHARIVIGDKTIHGMDEHTNELRHMLELWGVDRVELHIRHVEKQGDKLRVDGELHFNGVSVRVIFLHEKINGRWFMRHTEIR”, the protease stability score was 0.984. “HEEEHHMRELFKRFWHLFETGDWDKLAKNADPNVRSDINGVDRHGREEVIHELKRIWDELGIDHLELKEVHIQGNKVHSDGKLVYNGVSRKTHIELIVYNGVLKRMSIEIH” showed a protease stability score of 1.38. In the case of “DEEEEHFRRLLERFLHFWRTGDEDDYHKLADPHARSEVIIGDFRIESHGRHALEIWLRYMGIDHIHLEDSDSQGNKVHVHMHVKVGDKEHHVIIILIVIDGRVHQLTISVRRT”, the protease stability score is reported as 1.13. “SEDDHELEHAARRHFRDFWTGDWKSISRFLDPDAKVELLVNGQHIEIHGREQIIEQMLRIPNLRFELKRVHTEIYGEKMHVHVRGVVEFDGVREDVVLIFIFEKFNGRWHISKESREFR” gave a protease stability score of 0.35. For “SEEDHRAKHIFHLFLHWFLTGDWEIFEHYADPRMRTLVNGKNFHGWEETVKFLDHIFKELRVHHIHVDHLEVQGDKYHFEVRVDREYNGRREITIMYIHFLIFNGKVKSILIIIH”, the protease stability score was 1.08. “DEERKEFEEVFRQWIHALRTGDEDSELRNLDPNARIVVGDKEVHGREESERYLRETLHRADHMDFELHRLDVQGDKVHIDGTMILVVNGQEIRYRIHFISVKIDGRWLLRSVIIH” gave a protease stability score of 1.86. Sequence “SEDEEMTRKYFERYIRWLVTGDPKLLSELVDPNVKLIYNGRHLHGREFLVEWEMEILREARLHSVHVRDVKLFNGRLRMDVEINIEIGDKKSVVESNIVALKVNGRWVLESYEVD” has a protease stability score of 1.42. For “SEEEHVLEFIVKLFLEAWLTGDEDIIDWLVDPHTRLHVNGVDLHGREEVSHFLAHIRVEQLHIDDERITNINGVLHVDIKTEERFDVNGRVTRTKSELHIFIRKVDGRWFIQVFKIVYH”, the protease stability score was 0.332. Sequence “SEIDKHAEDVMRIWEHVHRTGNEDTLSHLLDPDVKVEIHYDGVDIRLHGMELVSEFLTRFAHHARNKDFKEKDLELQGNKIIRTGIVVFDYDGVEIRRWTHEEIRVVNGRFTHIKKEFH” has a protease stability score of 0.442. In the case of “SHEDELIERFYKWLIHILETGDEERWMEYADPDARLLYNGKDLIGRDEARRQMHEMRFHHMEVKSIRVVDGKVNVTGRIDGEINGRHHEHEVLLVIIKFNGKWLIKTVQFH”, the protease stability score is reported as 1.22. For “RDSEEKDKIFLSIVESAILTGDPETSEKMADPNVRIDFNGKDLVGREDYHRFVKRWLEEARFHKLVIHELRHVDGRMDSHTQEIVDIDGRRYTHDTHIIMLKIDGRWILHSKTVR”, the protease stability score was 0.986. In the case of “SEEERLARVFVELLLEISKTGDERMWKWLADPHYRLIIDGVRFHGRETLEREFKRFDYIHDVRLNDMIINGEHLILDVRVHGQQGDKEINIRTFLVVLKVDGVWVLKSVHIH”, the protease stability score is reported as 1.49. For “DEDHERTKLFSKLFLKWTHTGDWEKILENADPNVRMHIGDKNFHGMHEVWRFLHEHLEKLGADVHSLTDLKIEAYNGVVVVHVEGTENINGRDITSRLHLIVIKVDGRWIIREIRVTIS”, the protease stability score was 1.29. Work on “REEEELLKKLADHWWENVRTGDERRMRELFDPNTQFVIEVGDKKFTRHGRDELVHSLEHARIHDFHIKDQRPQGDFIEVEGEIDGEIDGRRFRTDVRVWIVIVNGRLKQIHIHVG” yielded a protease stability score of 1.15. “DEHEESAEWHSELMIRSMETGDEDLFEHLLDPRARFHINGQDIHGRDSISHFLSRRLKDMGFKHSSLKTVTIEVQGEWVYLRIKVILIVDGRHLDTEIIIISRKIDGVWHVHSMEIRFR” showed a protease stability score of 1.34. “DEDDEVSKFVAHVLSRVFHTGDEENLQKLADPNVRLHIGDKHHIGRETFIRWLRHFLDRADHVDSDVHDVRSIDGRIWADTRLRLEINGQTIEREVIIVIHKINGRWILHRIEIR” gave a protease stability score of 1.49. Sequence “DESRREVRHFIDLWIELVETGDEDTIRHLADPHVKIVIGEKEDWGMEVFFRDFRRLGVDHMEIIVHRVDVIGNKAHVDFELRVHVDGQEFRFRLRLIVHKINGRWILRTIEIH” has a protease stability score of 1.68. For “TEEEEHASRIARLWLDMLLTGDWHTLDRLLDPHVRLEVNGQERIGREQIIKFEEERKRQLRINDVRTRHIHSQGDKLHIVTEADGEIDGKRTNVDTRIQIKVVDGVVEEVKFDIK”, the protease stability score was 0.736. For “HELVEEAITMWKEMLVDELTGDEKKTSQNLDPNYKMVIDGQEIHGMEEWSRFLKEIRLHHEDFHVKDARVIDGRVKIDGHIKGTLEINGKRTRTETDVHIILIKINGRWVTHSVHFK”, the protease stability score was 1.24. Work on “DDEEEDYERAFKIFIDFVKTGDWRLLKELADPNVRNVIGDKEFMGRETFTKWVFDVRAQFDHVEIRIRDFEIQGNKLILYTELHLHQGDKSLTLELRIVILKVNGKWLMHSFRLQ” yielded a protease stability score of 1.4. “TEEEKHLRELTDRVLHEEETGDWRTLKELADPNVRFDYRYGDYFFHSHGREDVVKHLRHVFQEMRIERVHVKDRKNYNGKVEIHTEIHGVYNGVRFRTEVTIKIVIIDGRIHSHIWEIN” gave a protease stability score of 0.305. Sequence “SEEHKRIEKLLRRLQDALKTGDERDIMNLLDPNVRIEINGKDLIGREVWAKIMHHLRVEDSEINIHHSRSQGNFLESDIETHRHIHVDGKDIDLTWEEHVVIIKVDGKWKIERVHIR” has a protease stability score of 1.17. With “HEDQERLKRFLEFYVHLINTGDEDRIRDLIDPHARVDIDGRIYHGREMYTQAYRDLGIDYLEIKRWEIQGDKVHLDTRVHIDGVERQTHLIIMKFNGRWIVHTMEVQ” the protease stability score was 1.56. For “DVEQEISKTLVHLWVFALLTGDEHLIRKLADPHVRLDIDGVTIVGMDLVAKRITELRIERFTIEDVKFEIQGDKLISIMDTKVDGRIGDKRIETRVIILLIFEKIDGRWQLSTSSEEKR”, the protease stability score was 1.16. “DEDRKTVELAERLLKEMFDTGDEHTMRSLLDPNVRSNIGDWEFIGMDELSRWFEEVLKKLGVDHRSLKIKRSHTIGDKVILRSTLEFQQGDKTMKVDMRLVATKINGRWTVEEVEMK” showed a protease stability score of 0.81. Work on “SEEEEIARKIADIFFKVMQTGDEDHWLELFDPHTRFESDFNGRTVEIHGRERVREWKRKLEEDLGLTRFEIILRDSHVVNGVIHMDIEVRINGKTRRWIIDLIVINGRVKSLRVEIR” yielded a protease stability score of 1.15. Sequence “DREEEDYRRAWEHLHKDWKTGNEEHMERNADPNVRVEINGVERVGRELFVELMRHLVRHIRIEHVHVERSDIVNGVIILDMIVTGRIGDKSEIERVEVHTLKIDGRWLLTEVRFK” has a protease stability score of 0.663. In the case of “DDDDRKNHEIAKWIWELIETGDEDILQHLADPDYRLVLDFDGVHIHRHGMTRIYHTLERVYREFGADHIHIRSITNINGVNIIDGEVQVNGKHYRLVLIFIVVNGRIKEIRVKKR”, the protease stability score is reported as 1.54. “SEDEKDAEKMSERFLHMFITGNEELFRDLADPHTRLKVNGVHNHGREHVEILNKEFLTRLGVNYYEEHDVRYRVIDGVVFIDIVGHMNIDGQETEVTLHWRVLKVNGRWRITEVDIRRH” showed a protease stability score of 1.64. Work on “SEEEEESRHAIEMTLKTLITGDEHMIQDLADPRAQTHYGDKEYHGREELFRLMHEFILKIKNLRIELHDHHIQGDKIILDVRWRFDGKSFHVTIESRKINGRWLHHIFIVK” yielded a protease stability score of 0.582. Sequence “DEDDENNREMHDLSIRLFKTGDFDKIHKLMDPNAKLVIDIGDKHLHHHGREEASKRIFEIWHTLGVDHVHIKTHRHYGEKITIDMHLDINGQDTELIIVVLKINGRWLIQSVSMHFR” has a protease stability score of 1.35. Work on “SEEEEATKEMSRLVLENLKTGDFDAFHRLFDPNAKLDVGDKHFHGREQIHEWYLHVREELGVDVSRVHEKHIQVIGNKVILHGELHLRIGDKRDDTTMWIVSKKFDGRWILSSMRIS” yielded a protease stability score of 1.32. With “DEEEKHIRKMAEDLKRAFATGDWELLLEMFDPDVRINIIVNGRIIEEHGMENHVRKHVELGITVRLKDEHVESQGNWAHHEGRLEVNVNGKEKSFDVHINLLIVNGRLKESHLKIE” the protease stability score was 2.07. With “DEEEQHAERVTRRWSRAVLTGNEEELSRLMDPHVRVHINGRDLHGREVAVEQRREQHKELGIDHIEVRLRHLRIQGDKLEVDSRVIIRVNGQEITIDTLLIWRKIDGRWVLHSVHEH” the protease stability score was 0.348. “DEEEIALKRIVELWLEVIETGDERITEHLLDPRARFEFENHSRHGRKELTRWMTQLGIKYLDLHRMHIRVFDGRLHVHIDGTEIYDGVRRKSEIRMDVLKVDGKWLVEEYSIRFK” gave a protease stability score of 1.25. With “HEEHKHVKELAEMLIEWFLTGDEETTLDMADPDVRIDINGVDKIGRETVVEFKKRQHRDLGWDNIRFRPTHINAFDGRINIEGVIIVNGVTFKTEFRFEVINGRLKLDKWIVR” the protease stability score was 0.661. “DRHDKELERFTSDWLTSWHTGDFHRILELLDPDVRYIYGDKEWHGRENVHRAIKELLERLGIDHLHLQRVEIQGEKFKIQTQVHVGDKTINLIIHILVVDGRVREVNMDEK” showed a protease stability score of 1.33.
